Data set [1] addresses T1, E. aridi E1^BilD (1-507, C417A) (Ensifer aridi TW10, C417A).
T1 chain: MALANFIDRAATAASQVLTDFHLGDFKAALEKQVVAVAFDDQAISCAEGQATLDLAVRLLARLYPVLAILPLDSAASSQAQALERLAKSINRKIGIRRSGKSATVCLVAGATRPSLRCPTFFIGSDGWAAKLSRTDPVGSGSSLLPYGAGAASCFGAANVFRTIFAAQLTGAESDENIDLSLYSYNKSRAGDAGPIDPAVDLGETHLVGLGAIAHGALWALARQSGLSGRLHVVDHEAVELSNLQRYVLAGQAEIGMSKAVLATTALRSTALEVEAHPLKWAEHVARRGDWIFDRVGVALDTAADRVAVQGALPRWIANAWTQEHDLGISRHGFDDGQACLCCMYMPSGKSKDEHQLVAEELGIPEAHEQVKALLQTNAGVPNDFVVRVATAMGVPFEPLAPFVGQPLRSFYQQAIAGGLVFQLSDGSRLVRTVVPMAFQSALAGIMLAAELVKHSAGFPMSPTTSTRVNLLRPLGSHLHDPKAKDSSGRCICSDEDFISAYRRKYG
In words: SEC-MALS.

The data set “SEC-MALS” deals with the molecule itself. In words: SEC-MALS. In general terms: SEC sorts molecules by how far they enter the pores of the column.

B1: E. aridi E2^BilB (1-181, wild type) (enzyme, Ensifer aridi TW10)
chain: MPELQTVDPEVSRAKFDREISRFRPYADAYRMQGCFLIEESFPSAFFIFASPKVKPRVIGAAIEIDFTNYDLRPPSVVFVDPFTRQPIARKDLPLNMLRRPQLPGTPPEMISNLIQQNAVSLTDFIQANSLQDSPFLCMAGVREYHDNPAHSGDPWLLHRGSGEGCLAFILDKIIKYGTGP
The stoichiometry N is a count of units in the complex or per binding partner. B1: the binding result in data set [1] was “binds”. The “stoichiometry N” value in “SEC-MALS” was found to be 2.

B2: E. aridi E2^BilB (1-181) Mutant 1 (F36R/I48A/I59K/F83E) (enzyme, Ensifer aridi TW10)
chain: MPELQTVDPEVSRAKFDREISRFRPYADAYRMQGCRLIEESFPSAFFAFASPKVKPRVKGAAIEIDFTNYDLRPPSVVFVDPETRQPIARKDLPLNMLRRPQLPGTPPEMISNLIQQNAVSLTDFIQANSLQDSPFLCMAGVREYHDNPAHSGDPWLLHRGSGEGCLAFILDKIIKYGTGP
On to B2, for which the binding result in data set [1] was “binds”.

B3: E. aridi E2^BilB (1-181) Mutant 2 (F36R/I38A/F46K/I48A/I59K/F83E) (enzyme, Ensifer aridi TW10)
chain: MPELQTVDPEVSRAKFDREISRFRPYADAYRMQGCRLAEESFPSAKFAFASPKVKPRVKGAAIEIDFTNYDLRPPSVVFVDPETRQPIARKDLPLNMLRRPQLPGTPPEMISNLIQQNAVSLTDFIQANSLQDSPFLCMAGVREYHDNPAHSGDPWLLHRGSGEGCLAFILDKIIKYGTGP
As for B3, the binding result in data set [1] was “binds”.

B4: E. aridi Ubl^BilA (17-97) (domain or fragment, Ensifer aridi TW10)
chain: KIEIIVVVNGQPTQVEANPNQPLHVVRTKALENTQNVAQPPDNWEFKDEAGNLLDVDKKIGDFGFANTVTLFLSLKAGVAG
Regarding B4, in data set [1], the binding result is “binds”.
